The results in this text go back to paper PMC3431625.

The target of experiment [1] is Bovine collagen type IV (bovine) (UniProt Q7SIB2). The experiment can be described thus: ELISA. Background: ELISA stands for enzyme-linked immunosorbent assay.
In experiment [2] the target is Pepsinized collagen type II (UniProt P02459). The experiment can be described thus: ELISA.
Sequence of Pepsinized collagen type II (P02459 26-1487): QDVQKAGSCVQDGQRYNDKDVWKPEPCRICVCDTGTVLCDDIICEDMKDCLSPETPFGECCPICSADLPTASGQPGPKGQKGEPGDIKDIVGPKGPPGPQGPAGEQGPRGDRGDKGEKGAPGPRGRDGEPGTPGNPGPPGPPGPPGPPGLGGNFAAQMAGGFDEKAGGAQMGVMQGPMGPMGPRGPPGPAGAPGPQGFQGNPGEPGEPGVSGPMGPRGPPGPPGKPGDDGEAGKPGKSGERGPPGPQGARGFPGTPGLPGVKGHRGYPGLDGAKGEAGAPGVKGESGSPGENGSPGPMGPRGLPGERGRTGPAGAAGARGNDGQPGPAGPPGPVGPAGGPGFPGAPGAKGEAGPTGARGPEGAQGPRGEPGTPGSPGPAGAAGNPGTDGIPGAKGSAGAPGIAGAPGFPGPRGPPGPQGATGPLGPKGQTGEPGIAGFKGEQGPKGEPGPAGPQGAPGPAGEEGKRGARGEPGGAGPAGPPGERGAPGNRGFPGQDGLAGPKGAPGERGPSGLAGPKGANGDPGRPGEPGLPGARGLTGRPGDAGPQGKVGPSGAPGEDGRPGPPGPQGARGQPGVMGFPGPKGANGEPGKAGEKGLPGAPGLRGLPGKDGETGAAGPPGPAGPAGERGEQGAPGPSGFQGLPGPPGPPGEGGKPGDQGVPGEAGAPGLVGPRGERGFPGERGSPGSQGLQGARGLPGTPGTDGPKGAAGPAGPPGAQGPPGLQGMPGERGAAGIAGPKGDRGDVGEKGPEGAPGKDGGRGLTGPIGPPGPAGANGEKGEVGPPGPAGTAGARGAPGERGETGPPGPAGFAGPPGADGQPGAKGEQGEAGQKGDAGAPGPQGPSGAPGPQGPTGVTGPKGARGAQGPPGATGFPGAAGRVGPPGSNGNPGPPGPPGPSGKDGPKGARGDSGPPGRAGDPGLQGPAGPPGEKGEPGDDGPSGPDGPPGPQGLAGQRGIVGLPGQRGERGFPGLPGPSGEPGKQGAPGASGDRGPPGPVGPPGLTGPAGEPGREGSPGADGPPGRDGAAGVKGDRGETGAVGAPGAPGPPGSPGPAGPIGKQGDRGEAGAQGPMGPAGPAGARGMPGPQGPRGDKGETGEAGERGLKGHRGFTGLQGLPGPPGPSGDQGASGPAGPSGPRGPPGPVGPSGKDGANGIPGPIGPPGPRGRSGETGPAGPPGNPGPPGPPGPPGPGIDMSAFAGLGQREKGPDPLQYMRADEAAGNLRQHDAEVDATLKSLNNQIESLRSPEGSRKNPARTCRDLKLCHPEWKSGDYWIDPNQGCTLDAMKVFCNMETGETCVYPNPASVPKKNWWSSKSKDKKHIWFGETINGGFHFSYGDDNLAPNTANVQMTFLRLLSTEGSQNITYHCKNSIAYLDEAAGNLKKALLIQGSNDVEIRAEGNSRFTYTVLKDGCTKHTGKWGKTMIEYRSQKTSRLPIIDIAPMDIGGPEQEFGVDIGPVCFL

Sequence of Bovine collagen type IV (bovine) (Q7SIB2 28-1669, chain 1 of 2): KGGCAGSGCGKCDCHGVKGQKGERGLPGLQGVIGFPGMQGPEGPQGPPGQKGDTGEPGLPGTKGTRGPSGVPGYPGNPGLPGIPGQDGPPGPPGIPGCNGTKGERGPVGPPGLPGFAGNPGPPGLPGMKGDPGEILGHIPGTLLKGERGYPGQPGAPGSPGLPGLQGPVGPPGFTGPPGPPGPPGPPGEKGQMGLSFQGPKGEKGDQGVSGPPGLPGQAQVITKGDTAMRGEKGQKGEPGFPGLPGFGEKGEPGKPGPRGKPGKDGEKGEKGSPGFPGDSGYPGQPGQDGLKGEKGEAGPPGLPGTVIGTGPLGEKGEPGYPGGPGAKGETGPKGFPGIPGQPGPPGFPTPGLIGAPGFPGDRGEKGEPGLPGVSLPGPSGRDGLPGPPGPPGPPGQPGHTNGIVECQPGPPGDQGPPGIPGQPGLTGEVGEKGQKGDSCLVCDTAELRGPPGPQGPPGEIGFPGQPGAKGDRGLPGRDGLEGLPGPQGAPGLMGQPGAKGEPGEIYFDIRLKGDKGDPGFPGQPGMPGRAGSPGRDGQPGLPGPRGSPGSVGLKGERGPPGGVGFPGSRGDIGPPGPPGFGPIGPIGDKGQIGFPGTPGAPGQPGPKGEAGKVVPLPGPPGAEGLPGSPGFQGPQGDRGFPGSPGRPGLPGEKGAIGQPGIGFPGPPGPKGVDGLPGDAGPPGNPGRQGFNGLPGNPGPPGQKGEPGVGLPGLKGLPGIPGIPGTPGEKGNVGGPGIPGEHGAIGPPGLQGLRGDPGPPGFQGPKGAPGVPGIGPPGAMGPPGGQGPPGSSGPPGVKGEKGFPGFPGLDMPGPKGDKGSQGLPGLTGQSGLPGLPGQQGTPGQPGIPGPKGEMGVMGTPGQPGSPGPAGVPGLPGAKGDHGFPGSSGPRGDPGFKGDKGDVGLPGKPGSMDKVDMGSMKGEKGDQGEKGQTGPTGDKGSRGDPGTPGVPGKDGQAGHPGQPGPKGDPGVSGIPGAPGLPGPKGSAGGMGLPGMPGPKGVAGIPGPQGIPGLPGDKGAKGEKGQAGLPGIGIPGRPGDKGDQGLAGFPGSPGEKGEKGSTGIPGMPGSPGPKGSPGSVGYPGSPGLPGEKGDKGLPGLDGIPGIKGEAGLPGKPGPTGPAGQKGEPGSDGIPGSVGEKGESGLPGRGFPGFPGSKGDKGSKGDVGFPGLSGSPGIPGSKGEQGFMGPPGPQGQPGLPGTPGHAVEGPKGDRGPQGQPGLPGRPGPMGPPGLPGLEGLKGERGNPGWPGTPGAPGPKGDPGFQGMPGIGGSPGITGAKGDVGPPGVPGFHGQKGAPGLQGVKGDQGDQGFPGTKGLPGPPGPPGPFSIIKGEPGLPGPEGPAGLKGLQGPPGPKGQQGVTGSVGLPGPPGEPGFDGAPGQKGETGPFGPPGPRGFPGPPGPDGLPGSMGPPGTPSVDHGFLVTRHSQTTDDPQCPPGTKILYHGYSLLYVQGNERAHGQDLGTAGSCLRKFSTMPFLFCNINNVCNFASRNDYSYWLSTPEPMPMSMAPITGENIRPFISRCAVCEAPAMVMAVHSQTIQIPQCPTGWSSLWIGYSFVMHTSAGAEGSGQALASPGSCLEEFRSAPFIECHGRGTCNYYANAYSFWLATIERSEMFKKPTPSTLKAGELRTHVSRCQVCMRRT
Sequence of Bovine collagen type IV (bovine) (Q7SIB3 whole entry, chain 2 of 2, further chain): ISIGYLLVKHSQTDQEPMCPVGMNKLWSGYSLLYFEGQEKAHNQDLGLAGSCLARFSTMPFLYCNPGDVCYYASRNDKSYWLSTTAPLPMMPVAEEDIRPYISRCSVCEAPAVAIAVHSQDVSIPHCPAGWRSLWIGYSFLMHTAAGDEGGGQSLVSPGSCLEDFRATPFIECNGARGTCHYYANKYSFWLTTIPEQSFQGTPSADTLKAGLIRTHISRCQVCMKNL

B1: Recombinant bovine opticin (natural protein)
chain: ASLSEEREGDPYAILHLGDYVLSLDNYDEVIDPSNYDELIDYGDQLPQVKGTSLASLTRTRFTQSTEAARTLPSNPTTARPPTLGLLAAPANHGLPTCLICVCLGSSVYCDDADLENIPPLPQTTAYLYARFNRISHIRAGDFKGLTKLKRIDLSGNSISSIDDKALRLLPALRDLILPENKLVALPTLPTSIEVLDVRMNRLQSSGIQPEAFRALEKLQFLYLADNLLDAIPPSLPLSLRSLHLQNNMIETMQRDAFCDAEEHRHTRRPLEDIRLDGNPINLSLFPSAYFCLPRLPTGRFV
In general, Kd refers to the constant that tells how readily two partners part at equilibrium. A high value points to a looser complex. As for B1, the values for the Kd in experiment [1] and in experiment [2] were 500 nM and 40 nM, respectively.
